Assay [1] addresses T1, human TWEAK receptor (TWEAKR), expressed on transfected COS cells (human, UniProt Q9NP84 28-129).
T1 construct: 129 residue polypeptide cloned from a HUVEC library; Signal peptide 1-27 is predicted
T1 sequence: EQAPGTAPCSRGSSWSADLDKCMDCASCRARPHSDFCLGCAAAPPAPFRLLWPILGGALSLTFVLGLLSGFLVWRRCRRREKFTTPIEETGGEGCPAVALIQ
Put plainly: expression cloning by panning with TWEAK coated beads, then slide binding on transfected COS cells. From the text:
To clone TWEAKR cDNA, an expression vector encoding a growth hormone leader, a leucine zipper multimerization domain, and the C-terminal extracellular domain of human TWEAK (see Chicheportiche et al., J. Biol. Chem. 272(51):32401, 1997) was constructed. This expression vector, which was named pDC409-LZ-TWEAK, comprised the DNA sequence SEQ ID NO: 1 and encoded the polypeptide SEQ ID NO:2. pDC409-LZ-TWEAK conditioned supernatants were produced by transient transfection into CVI-EBNA cells. These supernatants were incubated with magnetic beads coated with polyclonal goat anti-mouse antibody that had previously been incubated with a mouse monoclonal antibody against the leucine zipper. Control beads were produced by mixing the coated beads with supernatants from cells transfected with empty vector.
A monolayer of COS cells grown in a T175 flask was transfected with 15 μg of DNA pools of complexity of 100,000 from a human umbilical vein endothelial cell (HUVEC) cDNA expression library. After 2 days these cells were lifted from the flask, and incubated in 1.5 mls of binding media plus 5% non-fat dried milk for 3 hours at 4° C. on a rotator wheel. […] Slide binding was performed as described more fully below, with the exception that TWEAKR positive slides were detected by incubation with […] followed by incubation with ¹²⁵I-labled M15 anti-leucine zipper.

The target of assay [2] is T2, human TWEAKR-Fc (TWEAKR extracellular domain fused to Fc portion from human IgG1) (human, 125-I labeled in the Scatchard assay).
T2 construct: the assays name only TWEAKR-Fc; also called huTWEAKR-Fc
Put plainly: ligand blot of TweakR-Fc (with and without DTT, with and without heating at 100° C.) probed with TWEAK-leucine zipper supernatant and 125I M15 anti-leucine zipper. The protocol:
Ligand blots were generated by running either TweakR-Fc or RP-Fc as a control on a standard SDS-PAGE and blotted onto nitrocellulose. The separate samples were prepared by with and without the addition of reducing agent (DTT) and with and without heating at 100° C. to denature the proteins. This blot was probed with TWEAK-leucine zipper conditioned supernatants followed by ¹²⁵I labeled M15 anti-leucine zipper.

Assay [3] concerns the target T3, DR3, expressed on transfected COS cells (UniProt Q93038 25-417, limits assumed).
T3 construct: whole, on cells; also called Apo3; WSL-1
T3 sequence (looked up): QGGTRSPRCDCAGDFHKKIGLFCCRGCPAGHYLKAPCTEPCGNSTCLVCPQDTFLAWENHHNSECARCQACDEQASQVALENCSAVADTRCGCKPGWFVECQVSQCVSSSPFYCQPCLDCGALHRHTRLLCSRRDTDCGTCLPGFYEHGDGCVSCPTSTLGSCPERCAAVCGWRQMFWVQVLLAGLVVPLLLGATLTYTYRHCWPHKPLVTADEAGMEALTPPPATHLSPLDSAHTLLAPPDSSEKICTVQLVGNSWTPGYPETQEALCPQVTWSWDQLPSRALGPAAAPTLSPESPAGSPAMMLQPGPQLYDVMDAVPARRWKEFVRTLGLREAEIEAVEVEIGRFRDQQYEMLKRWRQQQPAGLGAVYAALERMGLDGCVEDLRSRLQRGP
Put plainly: slide binding on transfected COS cells, 125I anti-leucine zipper antibody, autoradiography. The procedure:
Slides of COS cells were transfected with expression vectors containing TWEAKR, DR3, or vector without insert (control). After two days the cells were incubated with concentrated supernatants from CV-1 cells transfected with a vector encoding the leucine zipper TWEAK extracellular domain fusion protein. One hour later the cells were washed and probed with an ¹²⁵Ilabeled antibody against the leucine-zipper domain. The slides were washed, fixed, and autoradiography was performed using x-ray film. The TWEAKR transfected cells bound significant amounts of TWEAK. […] This experiment confirmed that the TWEAKR polypeptide identified in part A above, rather than DR3, is the major receptor for TWEAK. After discovery of the functional TWEAK receptor, other investigators also reported that DR3 is not the major receptor for TWEAK (Kaptein et al., FEBS Lett., 485(2-3):135, 2000. The TWEAK-TWEAKR binding interaction was further characterized by Scatchard analysis.

B1: leucine zipper TWEAK extracellular domain fusion protein (product of pDC409-LZ-TWEAK) (ligand)
chain: not shown
notes: Used as conditioned supernatant of transfected CV-1/EBNA cells; also called TWEAK-leucine zipper
Take B1: the binding result in assay [1] is “binds”; in assay [2], “binds”; in assay [3] it was “no binding”.

Source of the values: patent US20020110853A1 (IMMUNEX, published 2002).
